From US20160083711 come the findings set out here.

For the data set, the target named is T1, fluorogenic peptide (MCA)Lys-Lys-Pro-Ala-Glu-Phe-Phe-Ala-Leu-Lys(DNP).
T1 chain: KKPAEFFALK

B1: proCardosinB lacking the PSI region (pCBΔPSI) (protein)
chain: MVSNGGLLRVGLKKRKVDRLDQLRAHGVHMLGNARKDFGFRRTLRDSGSGIVALTNDRDTAYYGEIGIGTPPQNFAVIFDTGSSDLWVPSTKCDTSLACVIHPRYDSGDSSTYKGNGTTASIQYGTGAIVGFYSQDSVEVGDLVVEHQDFIETTEEDDTVFLKSEFDGILGLGFQEISAGKAVPVWYNMVNQGLVEEAVFSFWLNRNVDEEEGGELVFGGVDPNHFRGNHTYVPVTRKGYWQFEMGDVLIGDKSSGFCAGGCAAIADSGTSFFAGPTAIITQINQAIGAKGGGGSAESIVDCNGISSMPNIAFTIGSKLFEVTPEQYIYKVGEGEAATCISGFTALDIMSPQGPIWILGDMFMGPYHTVFDYGKLRVGFAEAV
A word on the Km: it is the substrate concentration at which the rate is half of its maximum. A word on the kcat: it is the number of substrate molecules converted per active site and unit of time at saturation. One may read the kcat/Km as the turnover number divided by the Michaelis constant. Consider B1, for which the Km stood at 8.7 µM, the VMax is 2.15e-05 µmol/s, the kcat was determined as 36.5 s⁻¹ and the catalytic efficiency (kcat/Km) was 4.2e+06 M⁻¹ s⁻¹.
